Test results reported in paper PMC4382702, “Artificial human Met agonists based on macrocycle scaffolds” (Nature Communications, 2015).
Positions of bridges follow the written chain, without caps; N, C: chain ends.

Key:
[1] = target: T1, murine Met ectodomain (Mus musculus, UniProt P16056); assay: SPR with biotinylated macrocycle or hHGF immobilized, murine Met ectodomain injected; assay type: binding; details: ligand immobilized on streptavidin sensor chip
T1 construct: murine Met ectodomain-Fc chimera proteins; purchased Sino Biological Inc
Experimental: (§1) The binding constants of the macrocycles to the Met ectodomain were determined by SPR analysis using a Biacore T200 machine (GE Healthcare). The running buffer was HBS EP+ buffer (10 mM Hepes pH 7.4, 150 mM NaCl, 3 mM EDTA and 0.05% (v/v) SurfactantP20) containing 0.1% DMSO. To assess the interaction between human Met and the macrocycles, human Met ectodomain-Fc chimera was immobilized to a surface density of 1,200–1,600 response units (RUs) on a CM5 sensor chip using a human antibody capture kit (GE Healthcare). Macrocycle binding was tested by injecting varying concentrations of the macrocycle at a flow rate of 30 μl min^−1. Binding was quantified by a single-cycle kinetics method. To assess whether macrocycles and hHGF interacted with human, mouse and canine Met, each biotinylated macrocycle or hHGF was immobilized to a surface density of 200–500 RUs (for biotinylated macrocycles) or ~2,200 (for biotinylated hHGF) RUs on a CAP sensor chip using a Biotin CAPture Kit (GE Healthcare), following the standard protocol. Met binding was tested by injecting varying concentrations of the macrocycle at 30 μl min^−1 and quantifying by a single-cycle kinetics method. All data were fitted to the standard 1:1 binding model.
(§2) Supplementary Figure 4. SPR sensorgrams of human (blue), murine (red) and […]
(§3) Measured curves are shown in blue, red and green, and fitted curves are shown in black. […]

[2] = test system: RPTEC; assay: Branching morphogenesis assay in RPTEC; assay type: cell-based, human; details: RPTEC in collagen gels, 8 days
Experimental: RPTEC (2 × 10^4 cells) were suspended in 400 μl Cellmatrix type IA collagen solution (Nitta Gelatin) in a 48-well plate and allowed to gel for 60 min at 37 °C, according to the manufacturer’s instructions. After gelation, 500 μl REBM supplemented with 0.5% FBS and 2.4 mM L-alanyl-L-glutamine, with or without hHGF (0.42 nM, 1.3 nM) or macrocycles (30 nM, 100 nM), were added to each well. Cells were cultured for 8 days, replacing the culture medium (with or without hHGF or dimeric macrocycle) every second day. HuCCT1 (1 × 10^4 cells) were suspended in 400 μl Cellmatrix type IA collagen solution in a 48-well plate and were allowed to gel for 60 min at 37 °C. After gelation, 500 μl RPMI1640 medium supplemented with 10% FBS, with or without 0.38 nM hHGF or 20 nM dimeric macrocycle, was added to each well. Cells were cultured for 8 days, replacing the culture medium (with or without hHGF or dimeric macrocycle) every second day. TAC-2 cells (4 × 10^3 cells) were suspended in 400 μl type I collagen solution (BD Biosciences) in a 48-well plate. After gelation, 500 μl DMEM supplemented with 10% FBS, with or without hHGF or dimeric macrocycle, was added to each well. Cells were cultured for 7 days, replacing the culture medium (with or without hHGF or dimeric macrocycle) every second day.

[3] = test system: HCC827 cells; assay: Cell growth assay in gefitinib-treated HCC827 cells; assay type: cell-based, human; details: HCC827 cells with 1 µM gefitinib
Experimental: Cells were plated at 2,500 cells per well in 96-well plates for calcein-AM staining or 7,500 cells per well in 48-well plates for cell counting. For HUVEC and HDMEC, plates were pre-coated with gelatin (Difco Laboratories, 0.1% for 1 h at 37 °C). After 3 h, the medium was removed and replaced with medium as follows: HUVEC and HDMEC were cultured in endothelial cell basal medium supplemented with 2% (HUVEC) or 1% (HDMEC) FCS, and 90 μg ml^−1 heparin, with or without hHGF or dimeric macrocycle. RPTEC were cultured in REBM supplemented with 0.5% FBS and 2.4 mM L-alanyl-L-glutamine, with or without hHGF or dimeric macrocycle. NHEK was cultured in KBM2 supplemented with 0.4% bovine pituitary extract, 0.33 μg ml^−1 hydrocortisone, 0.39 μg ml^−1 epinephrine, 10 μg ml^−1 transferrin and 1.8 mM CaCl2, with or without hHGF or dimeric macrocycle. […] The culture media (with or without hHGF or dimeric macrocycle) were replaced every second day. After 6 days, cells were stained with 5 μg ml^−1 calcein-AM (Dojindo) at 37 °C for 15 min. Fluorescence of living cells was detected by ARVO MX. Alternatively, cells were harvested with trypsin–EDTA solution, suspended in culture medium and the cell number was determined using a Countess Automated Cell Counter (Life Technologies). Statistical differences between stimulants were calculated using Student’s t-test.

[4] = target: T2, canine Met ectodomain (Canis lupus familiaris, UniProt Q75ZY9); assay: SPR with biotinylated macrocycle or hHGF immobilized, canine Met ectodomain injected; assay type: binding; details: ligand immobilized on streptavidin sensor chip
T2 construct: canine Met ectodomain were purchased from Sino Biological Inc; purchased Sino Biological Inc
Experimental: as §1, §2, §3

[5] = test system: HPAEC; assay: DNA synthesis (BrdU incorporation); assay type: cell-based, human; details: 30 nM dimeric macrocycle or 0.25 nM hHGF, 20 h
Experimental: Normal HPAECs were maintained in MCDB 131 medium supplemented with 5% FBS and 1.2 nM of basic fibroblast growth factor. Cells were serum starved for 24 h and then stimulated with 30 nM dimeric macrocycle or 0.25 nM hHGF in the presence of 5% FBS and 10 μM BrdU for 20 h. The cells were fixed in 4% PFA in PBS for 30 min, permeabilized with 0.2% Triton X-100 in PBS for 5 min, treated with 2 M HCl for 20 min and neutralized with 0.1 M sodium tetraborate for 5 min. The treated, neutralized cells were incubated with anti-BrdU primary antibody (BD Biosciences) for 2 h and subsequently stained with a fluorescently labelled secondary antibody for 30 min. The nuclei were stained with DAPI. BrdU incorporation was analysed by Biozero fluorescence microscopy (Keyence).

[6] = target: T3, human Met ectodomain (Homo sapiens, UniProt P08581); assay: SPR with biotinylated macrocycle or hHGF immobilized, human Met ectodomain injected; assay type: binding; details: ligand immobilized on streptavidin sensor chip
T3 construct: human Met ectodomain-Fc chimera was immobilized; purchased Sino Biological Inc
Experimental: as §1, §2, §3

[7] = test system: 49 representative human RTKs; assay: Phospho-RTK array; assay type: cell-based
Experimental: (§4) EHMES-1 cells were cultured in a six-well plate until they were 80%–90% confluent. After starvation for 6 h, the cells were stimulated with 2 nM hHGF or with 100 nM aML5-PEG3, aMD4-PEG11, aMD5-PEG11 or aMsD4-C6 for 10 min. Cells were then lysed with 200 μl of lysis buffer 17 (R&D Systems) containing 1 × Complete protease inhibitor cocktail (Roche). Lysates were analysed by SDS–PAGE analysis with 10% polyacrylamide gel and standard western blotting. The respective primary antibodies and HRP-conjugated secondary antibodies were diluted 1:2,000 in Can Get Signal Solution 1 (TOYOBO) and 1:5,000 in Can Get Signal Solution 2 (TOYOBO), respectively. Chemiluminescent signals were developed with Luminata Forte HRP substrate (Merck Millipore) and observed using an ImageQuant LAS 350 machine (GE Healthcare). Relative phosphorylation efficiency was evaluated by the band intensity and statistical differences between stimulants were calculated using Student’s t-test. The phospho-RTK array was performed using Proteome Profiler Human Phospho-RTK Array Kit (R&D Systems). For stimulation of cells with FBS, cells were cultured in the presence of 10% FBS, with or without excess concentrations of hHGF (30 nM) or aML5-PEG3 (3,000 nM) for 10 min. Cell lysates of stimulated EHMES-1 cells were analysed according to the manufacturer’s instructions.

[8] = test system: Met, Gab1, Akt and Erk1/2; assay: Western blotting of Met and downstream signalling proteins; assay type: cell-based, human; details: starved EHMES-1 cells, hHGF 2 nM or dimers 100 nM, 10 min
Experimental: as §4

[9] = target: T4, Met (Y1234/1235) (Homo sapiens, UniProt P08581); assay: Cell-based phospho-Met ELISA; details: EHMES-1 cells
T4 construct: endogenous in cells; host or cells: EHMES-1
Experimental: EHMES-1 cells (2 × 10^4 cells per well) were seeded in a 96-well black μClear-plate (Greiner Bio-One). After 24 h, the cells were stimulated with hHGF or dimeric macrocycle in RPMI1640 medium supplemented with 10% FBS for 10 min. The cells were washed with ice-cold PBS, fixed with 4% paraformaldehyde (PFA) in PBS for 30 min and washed three times with PBS. The cells were blocked with 5% goat serum, 0.02% Triton X-100 in PBS for 30 min and then incubated for 12 h in phospho-Met (Tyr1234/1235) (D26) XP rabbit mAb diluted 1:1,000 in 1% goat serum in PBS at 4 °C. The cells were washed three times with PBS and incubated for 1 h in HRP-conjugated anti-rabbit goat antibody diluted 1:1,000 in 1% goat serum in PBS. Following incubation, the cells were washed four times with PBS. Chemiluminescence was developed with ImmunoStar LD reagent (Wako) and measured by ARVO MX (Perkin Elmer). Relative Met phosphorylation was calculated as (Chemiluminescence unit of sample−chemiluminescence unit of mock control)/(chemiluminescence unit of 1.3 nM hHGF−chemiluminescence unit of mock control).

[10] = test system: c-Ret; assay: Transactivation of c-Ret; assay type: cell-based, human
Experimental: EHMES-1 cells were cultured in a 12-well plate until they were 80%–90% confluent. The cells were left untreated or stimulated with hHGF or aML5-PEG3 in the presence or absence of the indicated concentrations of the specific Met kinase inhibitor, SU11274 (Calbiochem). Cells were then lysed with 100 μl of Laemmli sample buffer. Lysates were sonicated and centrifuged for 15 min at 15,000 g. Supernatants were analysed by SDS–PAGE gel electrophoresis and western blotting, using anti-phosphorylated Met (Y1234/1235) mAb or anti-phosphorylated c-Ret (Y905) antibody.

[11] = target: T3, human Met ectodomain; assay: SPR analysis of macrocycle binding to immobilized human Met ectodomain-Fc
Experimental: as §1

[12] = target: T5, Recombinant human Met ectodomain-Fc chimera protein (human, UniProt P08581 25-932); assay: SPR; Biacore T200; human Met ectodomain-Fc captured (1,200-1,600 RU) on a CM5 chip with a human antibody capture kit; monomeric macrocycle or linear peptide injected at 30 µl/min, single-cycle kinetics; HBS EP+ (10 mM Hepes pH 7.4, 150 mM NaCl, 3 mM EDTA, 0.05% Surfactant P20) with 0.1% DMSO; 1:1 binding model; details: both partners purified
T5 construct: Hepatocyte growth factor receptor (Met), human, ectodomain; Captured through its Fc with a human antibody capture kit in a1 and a2; injected as analyte in a3; also called human Met extracellular domain; source: bought: Sino Biological Inc

[13] = 10% FBS, hHGF 30 nM or aML5-PEG3 3,000 nM

T5 sequence (P08581 25-932, stated change not applied): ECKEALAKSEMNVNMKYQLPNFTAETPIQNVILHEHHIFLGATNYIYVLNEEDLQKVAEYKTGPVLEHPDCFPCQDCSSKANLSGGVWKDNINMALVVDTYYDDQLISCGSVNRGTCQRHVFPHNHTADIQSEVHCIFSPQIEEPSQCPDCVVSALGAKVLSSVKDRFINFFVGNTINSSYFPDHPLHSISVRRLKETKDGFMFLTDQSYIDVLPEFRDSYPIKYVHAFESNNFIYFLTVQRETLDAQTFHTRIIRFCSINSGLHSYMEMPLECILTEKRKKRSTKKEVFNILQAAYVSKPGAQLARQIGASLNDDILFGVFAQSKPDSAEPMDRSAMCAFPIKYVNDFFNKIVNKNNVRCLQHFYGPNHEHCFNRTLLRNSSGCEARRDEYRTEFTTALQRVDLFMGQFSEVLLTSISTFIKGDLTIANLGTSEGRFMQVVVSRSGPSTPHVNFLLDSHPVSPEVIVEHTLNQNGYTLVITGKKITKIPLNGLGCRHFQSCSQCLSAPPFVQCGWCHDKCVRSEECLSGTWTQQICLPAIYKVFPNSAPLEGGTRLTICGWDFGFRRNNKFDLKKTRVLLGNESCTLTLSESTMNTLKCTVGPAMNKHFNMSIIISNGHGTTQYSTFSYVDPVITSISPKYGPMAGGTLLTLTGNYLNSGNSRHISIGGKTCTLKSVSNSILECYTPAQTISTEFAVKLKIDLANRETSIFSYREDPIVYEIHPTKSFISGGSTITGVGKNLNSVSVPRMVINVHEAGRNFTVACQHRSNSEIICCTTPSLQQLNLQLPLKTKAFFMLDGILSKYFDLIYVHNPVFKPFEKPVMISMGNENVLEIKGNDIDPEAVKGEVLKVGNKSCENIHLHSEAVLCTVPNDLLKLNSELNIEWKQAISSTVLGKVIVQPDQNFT
T3 sequence (P08581 25-932 limits assumed): as the sequence (P08581 25-932, stated change not applied) above
T4 sequence (P08581 308-1390 limits assumed): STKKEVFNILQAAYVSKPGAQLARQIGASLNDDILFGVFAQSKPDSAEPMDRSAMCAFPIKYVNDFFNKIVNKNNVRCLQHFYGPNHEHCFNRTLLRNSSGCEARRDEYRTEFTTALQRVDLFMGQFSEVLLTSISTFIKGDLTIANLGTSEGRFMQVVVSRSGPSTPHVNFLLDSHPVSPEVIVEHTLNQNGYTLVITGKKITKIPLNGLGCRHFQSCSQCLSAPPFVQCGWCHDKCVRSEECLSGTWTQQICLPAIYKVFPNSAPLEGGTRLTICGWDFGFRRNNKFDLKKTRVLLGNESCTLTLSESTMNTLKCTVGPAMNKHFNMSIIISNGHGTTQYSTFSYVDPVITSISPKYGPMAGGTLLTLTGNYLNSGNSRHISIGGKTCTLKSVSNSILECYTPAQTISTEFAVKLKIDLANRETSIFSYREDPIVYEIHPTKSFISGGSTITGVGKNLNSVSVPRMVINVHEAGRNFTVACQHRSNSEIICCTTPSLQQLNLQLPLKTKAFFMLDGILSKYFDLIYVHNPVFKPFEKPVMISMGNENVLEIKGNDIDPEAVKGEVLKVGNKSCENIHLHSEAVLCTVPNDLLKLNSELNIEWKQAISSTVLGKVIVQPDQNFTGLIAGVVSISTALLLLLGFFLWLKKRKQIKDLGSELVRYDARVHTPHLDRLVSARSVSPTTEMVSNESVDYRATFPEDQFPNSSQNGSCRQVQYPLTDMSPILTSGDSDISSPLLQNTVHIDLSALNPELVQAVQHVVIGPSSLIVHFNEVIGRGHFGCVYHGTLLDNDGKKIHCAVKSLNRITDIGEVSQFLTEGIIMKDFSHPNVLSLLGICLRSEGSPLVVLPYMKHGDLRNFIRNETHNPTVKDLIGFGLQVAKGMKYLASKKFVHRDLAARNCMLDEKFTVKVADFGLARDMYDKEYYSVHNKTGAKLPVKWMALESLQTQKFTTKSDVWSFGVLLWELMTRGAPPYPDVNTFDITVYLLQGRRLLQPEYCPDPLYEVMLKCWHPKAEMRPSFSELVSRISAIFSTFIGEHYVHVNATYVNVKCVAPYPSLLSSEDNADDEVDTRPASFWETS
T4 sequence (P08581 25-307 limits assumed): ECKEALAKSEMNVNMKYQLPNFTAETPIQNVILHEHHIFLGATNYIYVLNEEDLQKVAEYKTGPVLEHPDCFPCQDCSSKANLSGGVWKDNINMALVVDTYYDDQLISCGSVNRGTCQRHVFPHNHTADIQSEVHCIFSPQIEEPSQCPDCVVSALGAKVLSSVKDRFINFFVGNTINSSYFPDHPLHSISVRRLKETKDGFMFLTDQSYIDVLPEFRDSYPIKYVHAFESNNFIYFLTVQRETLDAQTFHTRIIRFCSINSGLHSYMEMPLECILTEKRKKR
T2 sequence (Q75ZY9 25-935 limits assumed): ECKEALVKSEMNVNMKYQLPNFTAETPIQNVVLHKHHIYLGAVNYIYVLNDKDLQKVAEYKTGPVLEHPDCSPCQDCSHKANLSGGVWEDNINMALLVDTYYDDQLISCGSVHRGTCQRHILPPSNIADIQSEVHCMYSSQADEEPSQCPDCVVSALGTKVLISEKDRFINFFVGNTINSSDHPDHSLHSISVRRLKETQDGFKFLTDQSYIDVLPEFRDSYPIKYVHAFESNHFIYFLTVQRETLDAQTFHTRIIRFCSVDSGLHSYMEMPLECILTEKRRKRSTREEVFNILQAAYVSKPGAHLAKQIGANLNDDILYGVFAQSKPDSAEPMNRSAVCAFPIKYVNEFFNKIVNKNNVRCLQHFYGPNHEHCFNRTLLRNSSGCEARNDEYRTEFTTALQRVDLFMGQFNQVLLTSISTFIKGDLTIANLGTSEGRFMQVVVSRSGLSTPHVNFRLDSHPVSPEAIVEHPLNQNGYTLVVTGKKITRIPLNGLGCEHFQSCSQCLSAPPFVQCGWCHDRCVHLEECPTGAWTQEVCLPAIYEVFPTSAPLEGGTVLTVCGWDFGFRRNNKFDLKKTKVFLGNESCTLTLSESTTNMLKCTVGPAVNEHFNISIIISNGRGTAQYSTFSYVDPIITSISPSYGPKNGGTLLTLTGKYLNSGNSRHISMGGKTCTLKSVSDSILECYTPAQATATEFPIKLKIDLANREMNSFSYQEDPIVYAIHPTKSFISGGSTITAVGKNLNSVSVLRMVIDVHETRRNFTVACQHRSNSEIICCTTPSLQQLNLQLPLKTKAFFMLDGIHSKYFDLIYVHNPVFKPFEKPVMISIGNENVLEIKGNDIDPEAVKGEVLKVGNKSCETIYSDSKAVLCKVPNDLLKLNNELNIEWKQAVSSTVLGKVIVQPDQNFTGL
T1 sequence (P16056 25-931 limits assumed): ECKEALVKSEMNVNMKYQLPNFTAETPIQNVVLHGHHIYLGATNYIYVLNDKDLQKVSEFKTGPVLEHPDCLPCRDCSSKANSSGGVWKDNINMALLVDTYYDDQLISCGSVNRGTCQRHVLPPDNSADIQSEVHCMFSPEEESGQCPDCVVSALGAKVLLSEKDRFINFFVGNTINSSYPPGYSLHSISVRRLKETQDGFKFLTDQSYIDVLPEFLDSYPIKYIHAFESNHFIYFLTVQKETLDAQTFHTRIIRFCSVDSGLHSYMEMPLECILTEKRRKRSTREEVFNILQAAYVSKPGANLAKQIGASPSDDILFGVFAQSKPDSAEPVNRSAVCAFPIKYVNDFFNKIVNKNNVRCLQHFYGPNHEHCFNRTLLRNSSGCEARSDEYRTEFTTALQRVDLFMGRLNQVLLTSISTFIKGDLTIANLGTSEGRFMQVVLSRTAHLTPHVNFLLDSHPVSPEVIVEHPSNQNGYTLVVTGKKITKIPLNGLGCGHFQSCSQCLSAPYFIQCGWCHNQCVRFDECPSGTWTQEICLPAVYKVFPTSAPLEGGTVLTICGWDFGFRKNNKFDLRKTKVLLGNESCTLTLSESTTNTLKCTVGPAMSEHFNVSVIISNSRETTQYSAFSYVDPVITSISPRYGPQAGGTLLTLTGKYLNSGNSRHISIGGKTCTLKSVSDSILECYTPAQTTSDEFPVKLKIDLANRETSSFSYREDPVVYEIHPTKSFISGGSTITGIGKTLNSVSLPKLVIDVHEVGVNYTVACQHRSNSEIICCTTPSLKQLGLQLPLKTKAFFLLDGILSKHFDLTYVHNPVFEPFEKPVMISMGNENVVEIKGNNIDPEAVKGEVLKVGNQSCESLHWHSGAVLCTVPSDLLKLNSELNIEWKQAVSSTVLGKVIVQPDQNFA

Molecule: hHGF: human recombinant hepatocyte growth factor, positive control
- binding to murine Met ectodomain [1]: binding of the immobilized hHGF to all three of the ectodomains
- branched tubule formation [2]: developed branched tubules
- restoration of proliferation [3]: restored in a dose-dependent manner
- binding to canine Met ectodomain [4]: binding of the immobilized hHGF to all three of the ectodomains
- DNA synthesis (BrdU incorporation) [5]: promoted DNA synthesis
- binding to human Met ectodomain [6]: binding of the immobilized hHGF to all three of the ectodomains
- Met phosphorylation at excess concentration [7, 13]: strongly induced Met phosphorylation
- effect on RTKs phosphorylated in FBS-containing media [7, 13]: neither affected the phosphorylation level of the RTKs
- RTK phosphorylation selectivity ([7]; EHMES-1 cells, 100 nM dimeric macrocycles or 2 nM hHGF, 10 min, without FBS): specifically phosphorylated Met
- phosphorylation of Met and downstream proteins (Gab1, Akt, Erk1/2) [8]: Met was phosphorylated at the Y1234/1235 and Y1349 residues
- concentration above which Met phosphorylation level decreased (bell-shaped response) [9]: above 5 nM
- c-Ret phosphorylation ([10]; EHMES-1 cells, FBS-containing media): induced c-Ret phosphorylation in a dose-dependent manner

Molecule: biotinylated hHGF: hHGF biotinylated using NH2-Reactive Biotin, 1.5 biotin per hHGF
- Met Y1234/1235 phosphorylation (agonist activity) ([9]; 10 min stimulation, 10% FBS): equivalent to that of hHGF

Molecule: Cc1[nH]c(/C=C2\C(=O)Nc3ccc(S(=O)(=O)N(C)c4cccc(Cl)c4)cc32)c(C)c1C(=O)N1CCN(C)CC1 [SU11274, reference compound]
- effect of Met inhibitor on c-Ret phosphorylation ([10]; EHMES-1 cells stimulated with 1 nM hHGF or 100 nM aML5-PEG3): decreased c-Ret phosphorylation

Molecule: aML5-Lin: linear counterpart of aML5 (Ac-YISWNEFNSPNWRFITAG-NH2)
- KD relative to parental peptides [11]: approximately two orders of magnitude higher

B1: aML5 (peptide)
peptide: {CH2CO}-YISWNEFNSPNWRFITCG-NH2
modifications: thioether N-17
SMILES: CC[C@H](C)[C@@H]1NC(=O)[C@H](Cc2ccc(O)cc2)NC(=O)CSC[C@@H](C(=O)NCC(N)=O)NC(=O)[C@H]([C@@H](C)O)NC(=O)[C@H]([C@@H](C)CC)NC(=O)[C@H](Cc2ccccc2)NC(=O)[C@H](CCCNC(=N)N)NC(=O)[C@H](Cc2c[nH]c3ccccc23)NC(=O)[C@H](CC(N)=O)NC(=O)[C@@H]2CCCN2C(=O)[C@H](CO)NC(=O)[C@H](CC(N)=O)NC(=O)[C@H](Cc2ccccc2)NC(=O)[C@H](CCC(=O)O)NC(=O)[C@H](CC(N)=O)NC(=O)[C@H](Cc2c[nH]c3ccccc23)NC(=O)[C@H](CO)NC1=O
notes: thioether macrocycle selected by RaPID from the L-library against human Met ectodomain; also called anti-Met L-library macrocycle 5; source: synthetic peptide (Fmoc SPPS, RP-HPLC purified)
- Kd [12]: 19 nM
- koff [12]: 0.0081 s⁻¹
- kon [12]: 430000 M⁻¹ s⁻¹

B2: aML5-Lin (peptide)
peptide: Ac-YISWNEFNSPNWRFITAG-NH2
notes: linear form of aML5, Ala in place of the ring-closing Cys; also called linear counterpart of aML5; source: synthetic peptide
- Kd [12]: 1300 nM
- koff [12]: 0.017 s⁻¹
- kon [12]: 13000 M⁻¹ s⁻¹
